In publication PMC9352680, “A comprehensive thermodynamic model for RNA binding by the Saccharomyces cerevisiae Pumilio protein PUF4”:
Substitutions are numbered along the chain they refer to. Names and notes keep the numbering of the source.

Biological target: T1, PUF4 RNA-binding domain (Saccharomyces cerevisiae, UniProt P25339 537-888)
T1 sequence: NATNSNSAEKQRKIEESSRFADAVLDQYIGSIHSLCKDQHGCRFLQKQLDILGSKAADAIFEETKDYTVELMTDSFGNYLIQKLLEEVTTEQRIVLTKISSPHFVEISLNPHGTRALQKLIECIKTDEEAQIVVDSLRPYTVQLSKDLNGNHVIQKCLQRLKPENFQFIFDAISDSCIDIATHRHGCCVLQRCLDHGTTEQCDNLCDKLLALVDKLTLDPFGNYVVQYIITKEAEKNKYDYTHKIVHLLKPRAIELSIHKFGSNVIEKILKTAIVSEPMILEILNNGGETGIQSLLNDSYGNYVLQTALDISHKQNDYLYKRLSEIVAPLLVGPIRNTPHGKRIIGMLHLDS
Test: Mg; RNA-MaP; 20 mM Na-HEPES pH 7.4, 30 mM KOAc, 0.75 mM MgCl2, 0.1% Tween-20, 5% glycerol, 0.1 mg/mL BSA, 2 mM DTT; 25 C; 0.0125-409.6 nM protein
Conditions: tags: N-His6-TEV cleaved; C-SNAP kept, Cy3B-labelled; label: tethered on chip by stalled RNA polymerase

UCUCUUUGUAGUCCUCUCUU (ssRNA) [Ic_S1_P3E.1_K3.1_C3.1_H3.1_A3.1_[T5G]_[A6T]_F3.1_[T7C]_[A8C]_T3.1]
Kd: 2000 nM

UCUCUUUGUACGGUUCUCUU (ssRNA) [Ic_S1_P3E.1_K3.1_C3.1_H3.1_A3.1_[T5C]_[A6G]_F3.1_[T7G]_[A8T]_T3.1]
Kd: 385 nM

UCUCUUUGUAGUGUUCUCUU (ssRNA) [Ic_S1_P3E.1_K3.1_C3.1_H3.1_A3.1_[T5G]_[A6T]_F3.1_[T7G]_[A8T]_T3.1]
Kd: 659 nM

UCUCUUUGUAGCCAUCUCUU (ssRNA) [Ic_S1_P3E.1_K3.1_C3.1_H3.1_A3.1_[T5G]_[A6C]_F3.1_[T7C]_T3.1]
Kd: 1850 nM

UCUCUUUGUAGUACUCUCUU (ssRNA) [Ic_S1_P3E.1_K3.1_C3.1_H3.1_A3.1_[T5G]_[A6T]_F3.1_[T7A]_[A8C]_T3.1]
Kd: 1210 nM

UCUCUUUGUACGCAUCUCUU (ssRNA) [Ic_S1_P3E.1_K3.1_C3.1_H3.1_A3.1_[T5C]_[A6G]_F3.1_[T7C]_T3.1]
Kd: 872 nM

UCUCUUUGUAGCAGUCUCUU (ssRNA) [Ic_S1_P3E.1_K3.1_C3.1_H3.1_A3.1_[T5G]_[A6C]_F3.1_[T7A]_[A8G]_T3.1]
Kd: 1740 nM

UCUCUUUGUAGUUGUCUCUU (ssRNA) [Ic_S1_P3E.1_K3.1_C3.1_H3.1_A3.1_[T5G]_[A6T]_F3.1_[A8G]_T3.1]
Kd: 1680 nM

UCUCUUUGUAGCAUUCUCUU (ssRNA) [Ic_S1_P3E.1_K3.1_C3.1_H3.1_A3.1_[T5G]_[A6C]_F3.1_[T7A]_[A8T]_T3.1]
Kd: 42.4 nM

UCUCUUUGUAGUCAUCUCUU (ssRNA) [Ic_S1_P3E.1_K3.1_C3.1_H3.1_A3.1_[T5G]_[A6T]_F3.1_[T7C]_T3.1]
Kd: 2020 nM

UCUCUUUGUACGAUUCUCUU (ssRNA) [Ic_S1_P3E.1_K3.1_C3.1_H3.1_A3.1_[T5C]_[A6G]_F3.1_[T7A]_[A8T]_T3.1]
Kd: 29.9 nM

B1: Ic_S4_P4E.1_K4.1_C4.1_H4.1_A4.1_[T7G]_F4.1_T4.1 (ssRNA)
RNA: UUUGACAACUGAUCGUUCUUUCUUGUAUAGUAUUCUUUCUCGAUCAGUUGUCUUU
Kd: 1.66 nM

B2: Ia_S4_P4E.1_K4.1_C4.1_H4.1_A4.1_[T7C]_F4.1_T4.1 (ssRNA)
RNA: B1 RNA with G30C
Kd: 0.515 nM

B3: Ia_S4_P4E.1_K4.1_C4.1_H4.1_A4.1_[T7A]_F4.1_T4.1 (ssRNA)
RNA: B1 RNA with G30A
Kd: 1.23 nM

UCUCUUUGUACGGCUCUCUU (ssRNA) [Ic_S1_P3E.1_K3.1_C3.1_H3.1_A3.1_[T5C]_[A6G]_F3.1_[T7G]_[A8C]_T3.1]
Kd: 1730 nM

UCUCUUUGUAGCUGUCUCUU (ssRNA) [Ic_S1_P3E.1_K3.1_C3.1_H3.1_A3.1_[T5G]_[A6C]_F3.1_[A8G]_T3.1]
Kd: 864 nM

UCUCUUUGUAGCAAUCUCUU (ssRNA) [Ic_S1_P3E.1_K3.1_C3.1_H3.1_A3.1_[T5G]_[A6C]_F3.1_[T7A]_T3.1]
Kd: 1060 nM

UCUCUUUGUAGUGCUCUCUU (ssRNA) [Ic_S1_P3E.1_K3.1_C3.1_H3.1_A3.1_[T5G]_[A6T]_F3.1_[T7G]_[A8C]_T3.1]
Kd: > 2300 nM

UCUCUUUGUAGUAAUCUCUU (ssRNA) [Ic_S1_P3E.1_K3.1_C3.1_H3.1_A3.1_[T5G]_[A6T]_F3.1_[T7A]_T3.1]
Kd: 1270 nM

UCUCUUUGUAGUAUUCUCUU (ssRNA) [Ic_S1_P3E.1_K3.1_C3.1_H3.1_A3.1_[T5G]_[A6T]_F3.1_[T7A]_[A8T]_T3.1]
Kd: 86.2 nM

UCUCUUUGUUUAUAUCUCUU (ssRNA) [Ia_S1_P3E.1_K3.1_C3.1_H3.1_[A4T]_A3.1_F3.1_T3.1]
Kd: 478 nM

UCUCUUUGUAGUCGUCUCUU (ssRNA) [Ic_S1_P3E.1_K3.1_C3.1_H3.1_A3.1_[T5G]_[A6T]_F3.1_[T7C]_[A8G]_T3.1]
Kd: > 2300 nM

UCUCUUUGUAGCGUUCUCUU (ssRNA) [Ic_S1_P3E.1_K3.1_C3.1_H3.1_A3.1_[T5G]_[A6C]_F3.1_[T7G]_[A8T]_T3.1]
Kd: 1510 nM

UCUCUUUGUAGCUUUCUCUU (ssRNA) [Ic_S1_P3E.1_K3.1_C3.1_H3.1_A3.1_[T5G]_[A6C]_F3.1_[A8T]_T3.1]
Kd: 296 nM

B4: Ib_S4_P5E.1_K5.1_C5.1_H5.1_[G2A]_A5.1_[T5G]_F5.1_T5.1 (ssRNA)
RNA: UUUGACAACUGAUCGUUCUUUCUUAUAGUAUUAUUCUUUCUCGAUCAGUUGUCUUU
Kd: 1940 nM

B5: Ib_S4_P5E.1_K5.1_C5.1_H5.1_[T3C]_A5.1_[T5A]_F5.1_T5.1 (ssRNA)
RNA: B4 RNA with A25G, U26C, G28A
Kd: 872 nM

B6: Ib_S4_P5E.1_K5.1_C5.1_H5.1_[A4T]_A5.1_[T6A]_F5.1_T5.1 (ssRNA)
RNA: B4 RNA with A25G, A27U, G28U, U29A
Kd: 16 nM

B7: Ib_S4_P5E.1_K5.1_C5.1_H5.1_[G2C]_A5.1_[T6A]_F5.1_T5.1 (ssRNA)
RNA: B4 RNA with A25C, G28U, U29A
Kd: > 2300 nM

B8: Ib_S4_P5E.1_K5.1_C5.1_H5.1_A5.1_[T5A]_[A7T]_F5.1_T5.1 (ssRNA)
RNA: B4 RNA with A25G, G28A, A30U
Kd: 5.23 nM

B9: Ib_S4_P5E.1_K5.1_C5.1_H5.1_[T3C]_A5.1_[A7T]_F5.1_T5.1 (ssRNA)
RNA: B4 RNA with A25G, U26C, G28U, A30U
Kd: 414 nM

B10: Ic_S4_P5E.1_K5.1_C5.1_H5.1_A5.1_[T6G]_[A7C]_F5.1_T5.1 (ssRNA)
RNA: B4 RNA with A25G, G28U, U29G, A30C
Kd: 12.5 nM

B11: Ib_S4_P5E.1_K5.1_C5.1_H5.1_[T3C]_A5.1_[A7G]_F5.1_T5.1 (ssRNA)
RNA: B4 RNA with A25G, U26C, G28U, A30G
Kd: 1520 nM

B12: Ib_S4_P5E.1_K5.1_C5.1_H5.1_[G2A]_A5.1_[T6A]_F5.1_T5.1 (ssRNA)
RNA: B4 RNA with G28U, U29A
Kd: 696 nM

B13: Ie_S4_P4E.1_K4.1_C4.1_H4.1_[+3C]_A4.1_F4.1_T4.1 (ssRNA)
RNA: B4 RNA with A25G, A27C, G28A
Kd: 5.86 nM

B14: Ib_S4_P5E.1_K5.1_C5.1_H5.1_[A4C]_A5.1_[T5C]_F5.1_T5.1 (ssRNA)
RNA: B4 RNA with A25G, A27C, G28C
Kd: 19.9 nM

B15: Ib_S4_P5E.1_K5.1_C5.1_H5.1_A5.1_[T6A]_[A7C]_F5.1_T5.1 (ssRNA)
RNA: B4 RNA with A25G, G28U, U29A, A30C
Kd: 2.42 nM

B16: Ib_S4_P5E.1_K5.1_C5.1_H5.1_[G2C]_A5.1_[T6C]_F5.1_T5.1 (ssRNA)
RNA: B4 RNA with A25C, G28U, U29C
Kd: 1940 nM

B17: Ib_S4_P5E.1_K5.1_C5.1_H5.1_A5.1_[T6A]_[A7G]_F5.1_T5.1 (ssRNA)
RNA: B4 RNA with A25G, G28U, U29A, A30G
Kd: 10.7 nM

B18: Ib_S4_P5E.1_K5.1_C5.1_H5.1_A5.1_[T5A]_[A7G]_F5.1_T5.1 (ssRNA)
RNA: B4 RNA with A25G, G28A, A30G
Kd: 15.3 nM

B19: Ib_S4_P5E.1_K5.1_C5.1_H5.1_[T3C]_A5.1_[T5C]_F5.1_T5.1 (ssRNA)
RNA: B4 RNA with A25G, U26C, G28C
Kd: 204 nM

B20: Ia_S4_P5E.1_K5.1_C5.1_H5.1_A5.1_F5.1_[T8A]_T5.1 (ssRNA)
RNA: B4 RNA with A25G, G28U, U31A
Kd: 6.15 nM

B21: Ib_S4_P5E.1_K5.1_C5.1_H5.1_[G2A]_A5.1_[A7G]_F5.1_T5.1 (ssRNA)
RNA: B4 RNA with G28U, A30G
Kd: 904 nM

B22: Ib_S4_P5E.1_K5.1_C5.1_H5.1_[A4C]_A5.1_[A7C]_F5.1_T5.1 (ssRNA)
RNA: B4 RNA with A25G, A27C, G28U, A30C
Kd: 83.8 nM

B23: Ia_S4_P5E.1_K5.1_C5.1_H5.1_A5.1_F5.1_[T9C]_T5.1 (ssRNA)
RNA: B4 RNA with A25G, G28U, U32C
Kd: 72 nM

B24: Ib_S4_P5E.1_K5.1_C5.1_H5.1_A5.1_[T5C]_[A7T]_F5.1_T5.1 (ssRNA)
RNA: B4 RNA with A25G, G28C, A30U
Kd: 1.71 nM

B25: Ib_S4_P5E.1_K5.1_C5.1_H5.1_[A4C]_A5.1_[T5G]_F5.1_T5.1 (ssRNA)
RNA: B4 RNA with A25G, A27C
Kd: 34.4 nM

B26: Ib_S4_P5E.1_K5.1_C5.1_H5.1_[G2T]_A5.1_[A7C]_F5.1_T5.1 (ssRNA)
RNA: B4 RNA with A25U, G28U, A30C
Kd: > 2300 nM

B27: Ib_S4_P5E.1_K5.1_C5.1_H5.1_[A4C]_A5.1_[A7G]_F5.1_T5.1 (ssRNA)
RNA: B4 RNA with A25G, A27C, G28U, A30G
Kd: 112 nM

B28: Ib_S4_P5E.1_K5.1_C5.1_H5.1_A5.1_[T6C]_[A7C]_F5.1_T5.1 (ssRNA)
RNA: B4 RNA with A25G, G28U, U29C, A30C
Kd: 4.55 nM

B29: Ib_S4_P5E.1_K5.1_C5.1_H5.1_[T3C]_A5.1_[A7C]_F5.1_T5.1 (ssRNA)
RNA: B4 RNA with A25G, U26C, G28U, A30C
Kd: 1630 nM

B30: Ib_S4_P5E.1_K5.1_C5.1_H5.1_A5.1_[T5C]_[T6C]_F5.1_T5.1 (ssRNA)
RNA: B4 RNA with A25G, G28C, U29C
Kd: 1.7 nM

B31: Ib_S4_P5E.1_K5.1_C5.1_H5.1_A5.1_[T5C]_[T6A]_F5.1_T5.1 (ssRNA)
RNA: B4 RNA with A25G, G28C, U29A
Kd: 3.97 nM

B32: Ie_S4_P4E.1_K4.1_C4.1_H4.1_[+3T]_A4.1_F4.1_T4.1 (ssRNA)
RNA: B4 RNA with A25G, A27U, G28A
Kd: 5.86 nM

UCUCUUUGUAGUUUUCUCUU (ssRNA) [Ic_S1_P3E.1_K3.1_C3.1_H3.1_A3.1_[T5G]_[A6T]_F3.1_[A8T]_T3.1]
Kd: 403 nM

UCUCUUUGUAGUCUUCUCUU (ssRNA) [Ic_S1_P3E.1_K3.1_C3.1_H3.1_A3.1_[T5G]_[A6T]_F3.1_[T7C]_[A8T]_T3.1]
Kd: 513 nM

UCUCUUUGUAGCCGUCUCUU (ssRNA) [Ic_S1_P3E.1_K3.1_C3.1_H3.1_A3.1_[T5G]_[A6C]_F3.1_[T7C]_[A8G]_T3.1]
Kd: > 2300 nM

UCUCUUUGUAGCUCUCUCUU (ssRNA) [Ic_S1_P3E.1_K3.1_C3.1_H3.1_A3.1_[T5G]_[A6C]_F3.1_[A8C]_T3.1]
Kd: > 2300 nM

UCUCUUUGUACGCUUCUCUU (ssRNA) [Ic_S1_P3E.1_K3.1_C3.1_H3.1_A3.1_[T5C]_[A6G]_F3.1_[T7C]_[A8T]_T3.1]
Kd: 62.7 nM

UCUCUUUGUACGCCUCUCUU (ssRNA) [Ic_S1_P3E.1_K3.1_C3.1_H3.1_A3.1_[T5C]_[A6G]_F3.1_[T7C]_[A8C]_T3.1]
Kd: 719 nM
